Measured values as given in PMC4735476, “Dataset concerning GroEL chaperonin interaction with proteins” (Data in Brief, 2016).

Target: T1, GroEL chaperonin ( (purified from Escherichia …, UniProt P0A6F5 1-548))
T1 construct: GroEL chaperonin, purified from Escherichia coli cells (HB101 strain) after expression of the plasmid pGroE4
Assay: fluorescence polarisation; 30×10^-9 M denatured fluorescein-labeled protein titrated with GroEL in 20 mM Tris–HCl, pH 7.5, 20 mM DTT, 10 mM MgCl2, 300 mM NaCl; apparent constant, counted on GroEL cavities
Conditions: both partners purified

T1 sequence (P0A6F5 whole entry): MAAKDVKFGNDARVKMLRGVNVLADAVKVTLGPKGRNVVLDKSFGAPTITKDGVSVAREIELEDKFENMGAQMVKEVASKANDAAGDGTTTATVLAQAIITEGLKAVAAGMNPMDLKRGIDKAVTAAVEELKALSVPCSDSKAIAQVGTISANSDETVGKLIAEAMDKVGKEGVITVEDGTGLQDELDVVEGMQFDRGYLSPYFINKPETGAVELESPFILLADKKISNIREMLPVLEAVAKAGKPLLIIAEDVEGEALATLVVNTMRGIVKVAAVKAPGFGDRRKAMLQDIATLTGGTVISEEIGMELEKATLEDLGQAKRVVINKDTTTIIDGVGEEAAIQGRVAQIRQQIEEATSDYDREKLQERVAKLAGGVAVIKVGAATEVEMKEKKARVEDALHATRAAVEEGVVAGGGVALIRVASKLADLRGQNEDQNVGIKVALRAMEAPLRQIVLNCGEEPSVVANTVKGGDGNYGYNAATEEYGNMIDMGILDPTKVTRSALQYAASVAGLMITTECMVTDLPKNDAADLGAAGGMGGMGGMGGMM

Kd: 1.6 nM
B1: fluorescein-labeled human α-lactalbumin (natural protein, UniProt P00709 20-142, looked up)
chain: KQFTKCELSQLLKDIDGYGGIALPELICTMFHTSGYDTQAIVENNESTEYGLFQISNKLWCKSSQVPQSRNICDISCDKFLDDDITDDIMCAKKILDIKGIDYWLAHKALCTEKLEQWLCEKL
modifications: fluorescein label (fluorescein isothiocyanate), position not stated
notes: Human α-lactalbumin; The same labelled protein was used native (20 mM Tris-HCl, pH 7.5) and denatured (buffer with 20 mM DTT); the assays tell the two states apart; also called native α-lactalbumin; denatured α-lactalbumin; source: bought: Sigma (USA), used without additional purification; labelled with fluorescein isothiocyanate, PD-10 and MonoQ
